Data: PMC3077247 (EMBO Reports, 2011)
Substitutions are numbered along the chain they refer to. Each block holds one binder with its values, some of them ahead of it.

Key:
[1] = target: T1, HECT domain of Nedd4, F707A (as used for fluorescence polarisation and SPR) (UniProt P46934-4, F707A); assay: SPR
T1 sequence: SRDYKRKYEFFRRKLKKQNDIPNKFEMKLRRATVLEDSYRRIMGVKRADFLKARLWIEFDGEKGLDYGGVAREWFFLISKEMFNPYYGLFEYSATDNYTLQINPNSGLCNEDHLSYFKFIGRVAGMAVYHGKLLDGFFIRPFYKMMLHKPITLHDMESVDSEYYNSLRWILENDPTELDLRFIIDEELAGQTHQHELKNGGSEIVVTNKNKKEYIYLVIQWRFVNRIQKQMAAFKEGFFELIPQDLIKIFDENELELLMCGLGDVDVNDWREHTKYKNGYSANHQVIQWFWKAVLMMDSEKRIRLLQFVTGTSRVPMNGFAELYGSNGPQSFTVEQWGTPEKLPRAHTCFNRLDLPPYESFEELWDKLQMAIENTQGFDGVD

[2] = target: T2, HECT domain of Nedd4, Y605A (as used for SPR) (UniProt P46934-4, Y605A); assay: SPR
T2 sequence: T1 sequence with Y87A, A189F

[3] = target: T3, GST-fusion of the HECT domain of Nedd4, wild type (UniProt P46934-4); assay: pull-down
T3 sequence: T1 sequence with A189F

[4] = target: ubiquitin (monomeric) (UniProt P0CG48 1-76); assay: fluorescence polarisation

binding result [1]: binds
binding result [2]: binds
binding result [3]: binds
B1: E2 enzyme Ube2D3 (apo form) (enzyme)
chain: not shown

Kd [4]: 11 µM
B2: HECT domain of Nedd4, wild type (as used for crystals, fluorescence polarisation, SPR and supplementary Fig S1) (domain or fragment)
chain: T1 sequence with A189F
